Our source for the concentration of peptide immunogen that inhibited antibody binding to the blot bands values is US20020137904A1.

This assay addresses rabbit anti-CS197 peptide antiserum raised against unconjugated peptide SEQUENCE ID NO 19. In words: Western blot competition; antiserum pre-incubated overnight with peptide immunogen. In general terms: Immunoblotting shows a protein as a band on a membrane.

B1: CS 197 synthetic peptide SEQUENCE ID NO 19 (peptide)
peptide: LPGTKAWMETEDTLGRVLSPEPDHDSLYHPPPEED
On to B1, for which the concentration of peptide immunogen that inhibited antibody binding to the blot bands worked out at 2.5 FM.
